Measured values published in publication PMC12603206, “The sensitive and selective electrochemical detection of carcinoembryonic antigen using a nanoMIPs-aptamer sandwich assay”.

Biological target: Carcinoembryonic antigen (CEA) (UniProt P06731 35-685)
Assay: electrochemical nanoMIPs-aptamer sandwich assay (SWASV of Pb2+); CEA captured on nanoMIPs electrode; aptamer on MOF-Pb probe; linear 1-1000 ng/mL, LOD 1.4 ng/mL (sensor values, not Kd); CEA in 0.01 M PBS pH 7.4, 1 h on nanoMIPs electrode, PBS/0.05% TWEEN20 wash; MOF-Pb-Apt probe (stored in 10 mM Tris-HCl pH 7.4) 30 min; temperature not stated
Conditions: protein: commercial

Sequence of Carcinoembryonic antigen (CEA) (P06731 35-685): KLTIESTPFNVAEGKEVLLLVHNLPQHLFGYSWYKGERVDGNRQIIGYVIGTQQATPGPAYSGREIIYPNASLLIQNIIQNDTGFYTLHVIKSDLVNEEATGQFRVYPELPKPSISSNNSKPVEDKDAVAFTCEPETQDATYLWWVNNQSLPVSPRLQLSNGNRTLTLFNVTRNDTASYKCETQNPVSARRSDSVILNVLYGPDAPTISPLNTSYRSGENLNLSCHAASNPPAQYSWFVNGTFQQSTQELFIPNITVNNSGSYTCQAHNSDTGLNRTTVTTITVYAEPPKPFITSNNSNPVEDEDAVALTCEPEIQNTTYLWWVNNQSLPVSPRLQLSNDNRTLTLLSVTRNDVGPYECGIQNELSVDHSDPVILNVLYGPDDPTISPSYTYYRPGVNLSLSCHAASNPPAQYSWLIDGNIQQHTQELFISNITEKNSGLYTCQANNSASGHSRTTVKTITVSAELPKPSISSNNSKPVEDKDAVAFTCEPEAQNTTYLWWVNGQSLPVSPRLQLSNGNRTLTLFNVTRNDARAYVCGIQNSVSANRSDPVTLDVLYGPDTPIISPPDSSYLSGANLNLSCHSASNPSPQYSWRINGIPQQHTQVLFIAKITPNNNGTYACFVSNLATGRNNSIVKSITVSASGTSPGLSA

**Q.** Does ATACCAGCTTATTCAATT (ssDNA, 5'-phosphate-C6) [CEA-specific aptamer] bind?
**A.** Result: binds
